Legend:
[1] = target: T1, recombinant hAng-2 (C-His, R&D Systems) (human, UniProt O15123 19-496); experiment: SPR, BIAcore T100; hAng-2 C-His captured on anti-His chip, antibody flowed
T1 construct: Bought protein; Captured on an anti-His antibody chip for SPR; also called human Ang2; not shown: C-terminal His tag
T1 sequence: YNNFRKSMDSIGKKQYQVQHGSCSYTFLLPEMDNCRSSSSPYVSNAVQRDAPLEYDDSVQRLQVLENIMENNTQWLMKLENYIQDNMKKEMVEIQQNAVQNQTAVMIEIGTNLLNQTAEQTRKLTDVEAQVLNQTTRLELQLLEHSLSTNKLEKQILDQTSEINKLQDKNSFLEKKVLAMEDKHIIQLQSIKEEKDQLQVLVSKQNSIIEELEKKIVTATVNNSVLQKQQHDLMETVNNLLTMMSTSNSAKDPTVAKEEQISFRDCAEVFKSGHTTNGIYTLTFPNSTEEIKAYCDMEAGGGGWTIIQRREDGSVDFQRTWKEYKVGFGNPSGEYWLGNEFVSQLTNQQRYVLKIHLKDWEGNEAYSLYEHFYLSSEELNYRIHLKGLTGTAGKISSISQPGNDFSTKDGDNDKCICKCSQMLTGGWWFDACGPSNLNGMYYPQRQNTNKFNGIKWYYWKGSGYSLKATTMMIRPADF
Method: To more exactly measure the binding affinity of the anti-Ang2 antibodies to antigen Ang2, the binding affinity of the above antibodies to the antigen was measured by an surface plasmon resonance (SPR) method using BIAcore T100 (GE Healthcare). The SPR method uses refractive index change of light which passes a sensor chip according to the state of materials coated onto the sensor chip, and if an antigen or an antibody is flowed onto a chip coated with the antigen or antibody, it causes changes in refractive index due to their binding and Kd values are thus calculated from the measured values.
First, anti-His antibody was immobilized on a CM5 sensor chip (GE healthcare) up to 8,000 RU levels using a pH 5.0 acetate solution and an amine coupling kit (GE Healthcare). 6 μg/ml of a recombinant hAng-2 (C-His, R&D Systems) protein was flowed onto the chip to be captured at 100 to 200 RU levels.

[2] = target: T2, mouse Ang2 (Accession # NP-031452) (R&D Systems) (mouse, UniProt O35608 19-496); experiment: ELISA on coated mouse Ang2; 50% binding concentration, which the filing calls Kd
T2 construct: Bought protein coated on the ELISA plate; also called mAng2
T2 sequence (looked up): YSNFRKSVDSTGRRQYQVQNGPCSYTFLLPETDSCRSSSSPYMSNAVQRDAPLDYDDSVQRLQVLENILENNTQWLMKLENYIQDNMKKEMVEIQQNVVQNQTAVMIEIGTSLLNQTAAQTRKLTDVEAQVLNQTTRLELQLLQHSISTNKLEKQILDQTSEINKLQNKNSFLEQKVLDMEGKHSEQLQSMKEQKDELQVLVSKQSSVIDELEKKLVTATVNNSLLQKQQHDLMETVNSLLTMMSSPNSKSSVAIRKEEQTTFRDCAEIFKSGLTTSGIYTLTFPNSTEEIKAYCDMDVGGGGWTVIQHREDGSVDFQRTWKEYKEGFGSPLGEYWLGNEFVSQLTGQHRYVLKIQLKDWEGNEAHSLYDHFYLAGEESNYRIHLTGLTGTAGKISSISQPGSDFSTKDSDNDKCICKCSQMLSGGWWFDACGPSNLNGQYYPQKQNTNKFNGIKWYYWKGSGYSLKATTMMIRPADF
Method: An ELISA was conducted to measure the binding affinity of the antibodies prepared in Example 2 to mouse Ang2(mAng2). MaxiSorp™ flat-bottom plate (Nunc) of 96-well was coated with 5-20 μg/ml of mouse Ang2 (Mouse Ang2; Accession # NP_{—}031452) (R&D Systems). Thereafter, the plate was washed five times with 0.05% (v/v) Tween-20-containing PBS (PBST) and then blocked with 1% (v/v) BSA (bovine serum albumin; Sigma)-containing PBS at a room temperature for 2 hour. Each of the anti-Ang2 antibodies was added to each well of the plate at various concentrations, and the plate was allowed to react at a room temperature for 2 hours.
Thereafter, the plate was washed five times with PBST. Then, a HRP-conjugated anti-mouse IgG antibody (Santacruz) diluted in 1% (v/v) BSA-containing PBS at a ratio of 1:1,000 (v/v) was added in an amount of 50 μl to each well to react at a room temperature for 1 hour and then, the plate was washed five times with PBST. Lastly, 100 μl of TMB substrate (Cell Signaling) was added to each well of the plate to induce color development for 3 min. and then, the reaction was ceased by the addition of 100 μl of Stop solution (Cell Signaling) and OD450 values were measured on a plate reader (Molecular Devices).
From the obtained results, 50% binding concentration (Kd) of the anti-Ang2 antibody to Ang2 protein is obtained, thereby measuring the binding intensity of each of the anti-Ang2 antibodies to Ang2.

FLAG-tagged hAng-2 = target: T3, FLAG-tagged hAng-2 (human, UniProt O15123 19-496); experiment: Ang2:Tie2 competition ELISA; hTie2-Fc coated, 400 ng/ml FLAG-tagged hAng-2, anti-FLAG-HRP detection
T3 sequence: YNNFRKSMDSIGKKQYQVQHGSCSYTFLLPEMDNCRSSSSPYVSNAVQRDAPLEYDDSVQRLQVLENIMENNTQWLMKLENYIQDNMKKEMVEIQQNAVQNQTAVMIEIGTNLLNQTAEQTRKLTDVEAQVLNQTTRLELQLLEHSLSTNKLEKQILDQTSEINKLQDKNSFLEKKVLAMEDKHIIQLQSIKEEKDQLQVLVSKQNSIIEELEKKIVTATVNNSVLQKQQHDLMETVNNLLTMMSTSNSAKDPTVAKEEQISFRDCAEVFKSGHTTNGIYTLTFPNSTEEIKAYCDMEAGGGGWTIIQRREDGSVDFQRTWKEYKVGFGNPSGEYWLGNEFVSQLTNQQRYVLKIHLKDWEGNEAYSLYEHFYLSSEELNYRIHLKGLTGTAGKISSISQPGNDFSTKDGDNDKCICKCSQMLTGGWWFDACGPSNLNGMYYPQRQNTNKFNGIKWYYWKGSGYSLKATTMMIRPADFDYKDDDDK
Method: More specifically, MaxiSorp™ flat-bottom plate (Nunc) of 96-well was coated with hTie2-Fc (R&D Systems) which is a protein bound with 4 μg/ml of Fc of human IgG1. After coating, the plate was washed five times with 0.05% (v/v) Tween-20-containing PBS (phosphate buffer saline) and then blocked with 1% (v/v) BSA (bovine serum albumin; Sigma)-containing PBS at a room temperature for 2 hour.
For Ang2:Tie2 competition ELISA, each anti-Ang2 antibody obtained in Example 2 was placed at various concentrations of 400 nM-0.001 nM into each well coated with the hTie-2/Fc fusion protein along with 1% (v/v) BSA and 400 ng/ml of a FLAG-tagged hAng-2 and then, the plate was allowed to react at a room temperature for 2 hours and washed five times with PBST. After that, a HRP-conjugated anti-FLAG antibody (Sigma) diluted in 1% (v/v) BSA-containing PBS at a ratio of 1:5,000 (v/v) was added in an amount of […] to each well to react at a room temperature for 1 hour and then, the plate was washed five times with PBST. Lastly, 100 μl of TMB substrate (Cell Signaling) was added to each well of the plate to induce color development for 3 min. and then, the reaction was ceased by the addition of 100 μl of Stop solution (Cell Signaling) and OD450 values were measured on a plate reader (Molecular Devices).

hAng1 = target: T4, hAng1 (human, UniProt Q15389 20-498, limits assumed); experiment: SPR, BIAcore T100
T4 construct: Tested by the same SPR set-up as hAng2; the construct is not described; also called human Ang1
T4 sequence (looked up): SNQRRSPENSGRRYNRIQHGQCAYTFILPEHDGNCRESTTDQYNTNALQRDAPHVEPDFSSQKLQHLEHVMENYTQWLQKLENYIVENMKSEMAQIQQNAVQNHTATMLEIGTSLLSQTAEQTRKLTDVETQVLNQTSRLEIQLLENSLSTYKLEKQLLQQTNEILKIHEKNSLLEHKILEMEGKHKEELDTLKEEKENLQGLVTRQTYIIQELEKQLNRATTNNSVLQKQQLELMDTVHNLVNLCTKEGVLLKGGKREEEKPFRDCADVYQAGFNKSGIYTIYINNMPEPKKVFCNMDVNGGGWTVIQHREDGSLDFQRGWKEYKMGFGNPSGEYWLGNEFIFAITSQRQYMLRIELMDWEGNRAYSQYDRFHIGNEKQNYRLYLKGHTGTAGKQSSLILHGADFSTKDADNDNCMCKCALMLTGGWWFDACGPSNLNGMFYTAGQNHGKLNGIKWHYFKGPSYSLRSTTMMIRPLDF

Kd [1]: 2.3 nM
Kd [2]: 2.1 nM
IC50 (FLAG-tagged hAng-2): 2.89 nM
B1: SAIT-ANG2-AB-m1B6 (antibody, V domains shown)
VH: QIQLVQSGPELKKPGETVKISCKASGYTFTNYGMNWVKQAPGKGLKWMGWINTYTGEPTYADDFKGRFAFSLETSASTAYLQINNLKNEDTATYFCARDHDGYLMDYWGQGTSVTVSS
VL: DIQMTQTTSSLSASLGDRVTISCSTSQGISNYLNWYQQKPDGTVKLLIFYTSSLHSGVPSRFSGSGSGTDYSLTISNLEPEDIATYYCQQYSKLPYTFGGGTKLEIK
notes: also called hybridoma KCLRF-BP-00307
binding result (hAng1): no binding (tested: 100 nM (highest antibody concentration))
